Measurements as given in article PMC4772501 (The Journal of Cell Biology, 2016).

T1: Cdc3 (S. cerevisiae, UniProt P32457 1-520)
T1 sequence: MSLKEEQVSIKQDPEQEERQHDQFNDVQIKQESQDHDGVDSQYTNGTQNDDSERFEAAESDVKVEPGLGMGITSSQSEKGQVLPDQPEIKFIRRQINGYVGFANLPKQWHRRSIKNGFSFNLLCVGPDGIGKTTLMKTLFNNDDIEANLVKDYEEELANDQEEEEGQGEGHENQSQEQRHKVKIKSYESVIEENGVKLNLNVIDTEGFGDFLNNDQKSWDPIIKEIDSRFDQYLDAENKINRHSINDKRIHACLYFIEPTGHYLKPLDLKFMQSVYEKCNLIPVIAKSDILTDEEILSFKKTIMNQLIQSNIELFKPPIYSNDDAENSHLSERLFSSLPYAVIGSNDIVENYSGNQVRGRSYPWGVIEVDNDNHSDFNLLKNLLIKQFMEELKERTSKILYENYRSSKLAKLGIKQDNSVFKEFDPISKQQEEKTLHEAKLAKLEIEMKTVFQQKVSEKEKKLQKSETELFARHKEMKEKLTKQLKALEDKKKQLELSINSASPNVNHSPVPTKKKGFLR

B1: (His)6Spr3 (natural protein)
chain: MKSKGSRLSTDCPVEFPKIVSGFAEEVKIRRQSSQGQYAVDSHPPKSPELKHRRQRSSSFVNGKCRNRDLPLLDNKKAQEINTNSHGQDIGIKNLPRQRELLNAKNGIDFTLMVAGQSGLGKTTFINSLFSTSLIDDDIKENKPIIRYKSIVEGDGTHLNFNVIDTPGFGNNMDNAFTWRTMVNYIDEEIRSYIFQEEQPDRTKMVDNRVHCCLYFLRPSNKGIDTLDVVTMKKLAKRVNLIPVIAKSDLLTKEELKNFKTQVREIIRVQDIPVCFFFGDEVLNATQDIFQKYPFSIIASNEYIFNEKGEKVKGRQYKWGAVDIENEKYCDFKILQKTIFDWNLIDLVESTEDYYEKCRSEMLRTRLLKARDCLTTKSVDITEEQRKFLEEEMNFDEIEENKLKNYKCYEIINKTVMDKVATEWDPEFITRQLEAKKKFNELSNREISKFRDWKKSLFMEQENFNQEIEQLNHKLENLQLECQDLEYKLLIGKSSNSHSTDSATLVNVHIKR
B2: Spr28 (natural protein)
chain: MFPMKDHSALEQHTLSRDELRRRKGYKKGLQLSILLLGEKGSGKSTFLNNLCGQDISLSDGDYDDDDDKVTNNVTPENGNAIEDIDPGYKTAHLSPGLKLVTRRVYLNDELGVPITLDIILFPGCGDNVDNSQSSVVIKNYLDQQFANVLKEEVRIKRNTKETDGRPHVCLYFLKSTPRGVKKFDIELMKTICDKVNLIPIIPKADGLTETELNLHKDIVRQEISQNNIRVFDFKSDTLGETLALYDMDIDSSSAKSKYDNDTKIKEISPFAIVCSKTFNKNSENRVEHIRTYEWGSLVVEDQNTSDFIYLKAILLGSHLQELKDVTNNVLYENYRAKVLTEKKNNYDIPNYSYIDETSRGSVSNVSTRRNSASRTLGNPDTNDENAYQIHKEIDEKNRIIEDYQRKIDLLEKMLAAPHQNKV
B3: Cdc10 (natural protein)
chain: MDPLSSVQPASYVGFDTITNQIEHRLLKKGFQFNIMVVGQSGLGKSTLINTLFASHLIDSATGDDISALPVTKTTEMKISTHTLVEDRVRLNINVIDTPGFGDFIDNSKAWEPIVKYIKEQHSQYLRKELTAQRERFITDTRVHAILYFLQPNGKELSRLDVEALKRLTEIANVIPVIGKSDTLTLDERTEFRELIQNEFEKYNFKIYPYDSEELTDEELELNRSVRSIIPFAVVGSENEIEINGETFRGRKTRWSAINVEDINQCDFVYLREFLIRTHLQDLIETTSYIHYEGFRARQLIALKENANSRSSAHMSSNAIQR

What was measured:
[1] = molecular target: T1, Cdc3; assay: pull-down
[2] = molecular target: B1; assay: negative-stain EM, single-particle class averages
[3] = molecular target: B1; assay: pull-down
[4] = molecular target: the molecule itself; assay: negative-stain EM, single-particle class averages
[5] = molecular target: T1, Cdc3; assay: negative-stain EM, single-particle class averages

Does B1 bind [1]?
Result: binds

Does B2 bind [2]?
Result: binds

What does the source list for B3?
binding result [3]: binds; binding result [4]: binds; binding result [5]: binds
